For experiment [1], the target named is human lymphoma (HH) cell line (human). Kind of experiment: binding to HH cells, dose-dependent (FIG. 5); receptor on the cells not named.
In experiment [2] the target is T1, IL-2/15Rβ (CD122) ECD (human) (UniProt P14784).
T1 sequence: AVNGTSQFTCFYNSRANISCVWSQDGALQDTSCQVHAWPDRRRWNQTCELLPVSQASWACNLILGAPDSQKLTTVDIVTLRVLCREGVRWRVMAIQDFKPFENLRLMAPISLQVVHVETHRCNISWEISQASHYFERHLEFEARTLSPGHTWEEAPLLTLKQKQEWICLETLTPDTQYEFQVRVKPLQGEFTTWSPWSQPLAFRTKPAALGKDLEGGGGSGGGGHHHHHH
Kind of experiment: SPR, Biacore 8K, complex captured on anti-human Fc CM5 chip, receptor ECD-His injected; ka and kd printed as NA. A general note: Surface plasmon resonance follows binding to a sensor surface in real time, without labels.

1 molecule from patent publication US20250145679A1 can be followed below.

B1: W327151-BMK1 (XENP24306) (Fc fusion, part only; not given: IL-15Ralpha-Fc chain, linker and Fc, not shown: a dimerising Fc or GST)
chain, part: NWVNVISDLKKIEDLIQSMHIDATLYTESNVHPSCKVTAMKCFLLELQVISLESGDASIHDTVQDLIILANNSLSSNGNVTESGCKECEELEEKNIKEFLQSFVHIVQMFINTS
One may read the EC50 as the concentration at which the effect is half-maximal. A higher EC50 goes with a need for much substance. In general, Kd refers to the equilibrium constant for the complex coming apart. B1 returned an EC50 in experiment [1] of 0.172 µM. In experiment [2], this molecule showed an equilibrium dissociation constant (Kd) of 8.58 µM.
